The results in this text go back to article PMC3577912, “A Novel Role for Arabidopsis CBL1 in Affecting Plant Responses to Glucose and Gibberellin during Germination and Seedling Development” (PLoS ONE, 2013).

The assay has as its target T1, His-AKINβ1 fusion protein (Arabidopsis thaliana, UniProt Q84VQ1 1-283).
T1 construct: AKINβ1, β regulatory subunit of SnRK1, Arabidopsis thaliana, AT5G21170; also called pET-AKINβ1; His-tagged AKINβ1
T1 sequence (looked up): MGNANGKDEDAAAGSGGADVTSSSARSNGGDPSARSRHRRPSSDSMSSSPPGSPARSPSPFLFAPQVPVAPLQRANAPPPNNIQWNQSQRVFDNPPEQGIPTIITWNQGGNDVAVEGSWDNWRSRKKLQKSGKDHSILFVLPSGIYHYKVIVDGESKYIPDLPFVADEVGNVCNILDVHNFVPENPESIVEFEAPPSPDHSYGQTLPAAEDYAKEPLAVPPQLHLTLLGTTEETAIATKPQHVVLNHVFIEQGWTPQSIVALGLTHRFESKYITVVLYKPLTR
Briefly: pull-down; about 5 µg GST-CBL1 immobilised on Glutathione-Sepharose 4B beads, incubated with His-AKINβ1 overnight at 4°C, washed five times with ice-cold PBS, Western blot with anti-His antibody. The conditions noted are these: both partners purified. A general note: Immunoblotting shows a protein as a band on a membrane.

B1: GST-CBL1 fusion protein (natural protein)
chain: not shown
notes: Calcineurin B-like protein 1 (CBL1), Arabidopsis thaliana, AT4G17615; also called pGEX-CBL1; glutathione S-transferase (GST)-CBL1; source: E. coli BL21 (DE3), purified (Glutathione Sepharose)
Regarding B1, the binding result is “binds”.
